In the nanobody polyreactivity screen of Harvey et al. (2022):

Experiment: yeast display, Sf9 membrane polyspecificity reagent, FACS + sequencing; frameworks hold sequencing errors
Outline: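 In a synthetic yeast display library (Saccharomyces cerevisiae BJ5465), nanobody expression was induced with galactose for 36–48 hours. FACS gates were set low and high (top ~1%) using anti-HA fluorescence for expression and streptavidin fluorescence for binding of the Sf9 membrane reagent. Each polyreactivity label is drawn from the gate of origin.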

Sequence | polyreactivity (PSR sort gate)
QVQLVESGGGLVQAGGSLRLSCAAYGGIFGRYAMGWYRQAPGKERELVAAISKRGGSTYYADSVKGRVTISRDNAKNTVYLQMNSLKPEETAVYYCNAAQSVELGYDYCGQGTQVTVSS | high polyreactivity
QVQLVESGVCLVQAGGSLRLSCAASGFTFKWYAMGWYRQAPGKERELVATITIGGRTNYADSVKGRFTISRDNAKNTVYLQMNSLKPEETAVYYCATYFVGFRLSDYDYWGQGTQVTVSS | low polyreactivity
QVQLVESGGGLVQAGGSLRLSCAASGNIVDYYGMGWYIQAPGKERELVAAINVSGDSTYYADSVKGRFTISRDNAKNTVYLQMNSLKPEDTAVYYCAADYGWGSGFEYDYWGQGTQVTVSS | low polyreactivity
QVQLVESGGGLVQAGGSLRLSCAASGFIFSSYAMGWYRQAPGKERELVASIRRRGGSTYYADSVKGRFTISRDNAKNTVYLQMNSLKPEDTAVYYCAASRVSYGTRFDYWGQGTQVTVSS | high polyreactivity
QVQLVESGGGLVQAGGSLRLSCAASGITFNYAMGWYRQAPGKERELVAAISRRGGSTYYADSVKGRFTISRDNAKNTVYLQMNSLKPEDTAVYYCNTTVWGSYYYWGQGTQVTVSS | high polyreactivity
QVQLVESGGGLVQAGGSLRLSCAASGFVWNAMGWYRQAPGKERELVAAINWRGGSTNYADSVKGRFTISRDNAKNTVYLQMNSLKPEDTAVYYCAAYFFHYHFYQAAYDYWGQGTQVTVSS | low polyreactivity
QVQLVESGGGLVQAGGSLRLSCAASGSIFDGYGMGWYRQAAGKERELVAGITSGGSTYYADSVKGRFTFSRDNAKNTVYLQMNSLIPEDTAVYYCATVVRYSNARGDYWGQGTQVTVSS | low polyreactivity
QVQLVESGGGLVQAGGSLRLSCAASGSTFRSYTMGWYRHAPGKEMELVARISRSGGSTYYADSVKGRFTISRDNAKNTVYLQMNSLKPEDTAVYYCAALYYVKPGQRYDYWGQGTQVTVSS | high polyreactivity
QVQLVESGVGLVQAGGSLRLCCAASGSTSKYYAMVWYRQSPGKERELVAAITWSDVSTYYADSVKGRFTISRDNAKNTVYLQMNSLKPADTAVYYCNAGYDYWGQGTQVTVSS | low polyreactivity
QVQLVESGGGLVQAGGSLRLSCAASGSISAQNAMGRYRQAPGKERELVATINSGGRTNYADSVKGRFTISRDNAKNTVYLQMNSLNPEDTAVYYCNTVVRGAYTYGDVSKYDYWGQGNQVTVSS | low polyreactivity
QDQLEESGGGIVQAGGSLRLSCAASGSTFQYYAMGWYRQAPGKERELFAAISASVDTKFYADSVKGRFTISRDNAKNTVYLQMNSLKPEDTAFYYCATDWPHWRKVYWFDYWGQGTQVTVSS | low polyreactivity
QVQLVESGGGLVQAGGSLRLSCAASGSIFGLYGMGWYRPAAGKERELLAAITGRGGSTYYADSVKGRFTISRDNAKITVYLQMNSLKPEDTAVYYCAALRYTFAGRFDYWGQGTQVNVSS | high polyreactivity
QVQLVESGGGLVQAGGSLRLSCAASGSTFSTYAMGWYRQAPGKERELVARITVSVGSTYYADSVKGRFTMSRDNAKNTVYLQMNSLKPEDTAVYYCAVGSDEVYFVGDYEYWGQGTQVTVSS | low polyreactivity
QVQLVESGGGLVQAGGSLRLSCAASGSIFRYYDMGWYRQAPGKERELVAAISDSTGTTYYADSVKGRFTISRDNAKNTVYLQMNSLKPEDTAVYYCTAGYDPRYDYWGQGTQVTVSS | high polyreactivity
QVQLVESGGGLVQAGGSLRLSCAASGSIFRVYAMGRYRQAPGKEREFVAAISYSTGSTYADSVKGRFTISRDNAKNTVYLQMNSLKPEDTAVYYCNARLRYGSRDEYDYWGQGTQVTVSS | low polyreactivity
QVQLVESGGGLVQAGGSLRLSCAASGFTFTTYAMGWYRQAPGKERELVARISRRSGSTYYADSVKGRFTISRDNAKNTVYLQMNSLKPEDTAVYYCNADVDRSTTIFDYWGQGTQVTVSS | high polyreactivity
QVQLVESGGGLVQAGGSLRLSCAASGSTFSVYGMGWYRQGPGKERELVAAISGYGSRRYYADSLKGRFTISRDNAKNTVYLQMNSLKPEDTAVYYCAAVRRLLQGRTMYYWGQGTQVTVSS | high polyreactivity
QVQLVESGGGLVQAGGSLRLSCAASGLIFSDNAMGWYRQAPGKEREFVASISDSGTTTYYADSVKGRFTISRDNAKNTVYLQMNSLKPEDTAVYDCNARPGQSGARFGYWGQGTQVTVSS | high polyreactivity
QDQLVESVGGLVQAGGSLRLSCAASGSIFDQNAMGCSRHAPGKESELVAAITRGGSTKYADSVKGRFTISRDNAKNTVYLQMNSLKPEDTAVYYCARTDRRRYQPYEYWGPGTQVTVSS | low polyreactivity
QVQLVESGGGLVQAGGSLRLICAASGSTFQLTAMGWYIQAPGTEREFVASITDSGGRTYYADSVKGRFTISRDNANNTVYLQMNSLKPVDTAVYYCNTAGAAERRRAYDHDYWGQGTQVTVSS | high polyreactivity
QVQLVESGGGLVQAGGSLRLSCAASGITLAGYVMGWYRQAPGKERELVADISSSGDSTYYADSVKGRFTISRDNAKNTVYLQMISLKPEDTAVYYWAAEEIIPLIYKGYPFDYWGQGTQVTVSS | low polyreactivity
QVQLVESGGGLVQAGGSLRLSCAASGSTFIDYAMGWYRQAPGKERELVAAITNGGNTKYADSVKGRFTISRDNAKNTVYLQMNSLKPEDTAVYYCAREPSIFTPSYDYWGQGTQVNVSS | low polyreactivity

Sequence | polyreactivity (PSR sort gate)
QVHHVESGGGLVQAGGSLRLSCAASGLILVPNTMGWYRQAPGKERELVAAISYSGGGTYYADSVKGRFTISRDNAKNNVYLQMNSLKPEDTAVYYCAAYVKRESAPYGYWGQGTQVTVSS | low polyreactivity
QVQHVESGGGLVQAGGSLRLSCAASGRIFNRYAMVWYRQAPGKERELVAAISASGDNTYYADSVKGRFTISRDNAKNTVYLQMISLKPEDTAVFYCAARYYTYLHFSMYYWGQGTQVTVSS | high polyreactivity
QVQLVESGGGLVQAGGSLRLSCAASGLTFDVYTMGWYRQAPGKETEFVAAITWDGGITYYADSVKGRFTISRDNAKNSVYLQMNSLKPEDTAVYYCAADYALGEVYWYNYWGLGTQVTVSS | low polyreactivity
QVQLQESGGGQVQAGGSLRLSCAASGYISTHYFMGWYRQAPGKDREFVAGISNGSITNYADSVKGRFTISRDNARNTVYLQMNSLKPEDTAVYYGAAYDWTYVRFGYWGQGTQVTVSG | high polyreactivity
QVQLVESGGGLVQAGGSLRLSCADSGTTFVKYAMGWYRQAPGKERELVAAISSRGGRTYYADSVKGRFTISRDNAKNTVYLQMNSLKPEDTEVYYCNKGTRLDGEYEYWGHGTQVTVSS | high polyreactivity
QVQLVESGGGLVQAGGSLRLSCAASGFTFVRYAMGWYRQAPGKERELVAAISSSGSSTYYGDSVKGRFTISRDHEKNTVYLQMNSLKPEDTAVYYFNARAGRGEDYWGQGTQVTVSS | low polyreactivity
QVHLVESGGGLVQAGGSLRLSCAASGGTINRYAMGWSRQAPGKERELVAAITYSGGRTYYADSVKGRFTISRDNAKNTVYLQMNSLKPEDTAVYYCAARVGKIISDSWGQGTQVTVSS | high polyreactivity
QVQLVESGGGLVQAGGSLRLSCAASGSTFHLNAMGWYRQAPGKERELVAAISWDGSSTSYADSVKGRFTISRDNANNTVYLQMNSLKPEDTAVYYCAADDTLDRVPTTFIDGSPGYGYWGQGTQVTVSS | low polyreactivity
QVQLVESGGGLVQAGGSLRLSCAASGSIFTGYAMGWYRQAPGKERELVARITKRGGSTYYADSVKGRFTISRDNAKNTVYLQMNSLKPEDTAVFYCNADRKFPYGSYETHDYWGQGTQVTVSS | high polyreactivity
QVQLEESGGGLVQAGGSLRLSCAASGTTFGINCYGMYRQAPGKERELVAGISVSGGSTYYADSVNGRFTISRDNAYNTVYLQMNSLKPEDTAVYYCAAKWFNRDFDYWGQGTQVTVSS | low polyreactivity
QVQLVESGGGLVQAGGSLRLSCAASGFSFATYAMGWYRQAPGKERELVAAISSTGGRTYYAVSVKGRFTISRDNAKNNVYLQMNSLKPEDTAVYYCAADWRVTYDYWGQGTQVTVSS | high polyreactivity
QVQLVESGGRLVQAVASHRLSCAASGSIFRKYALGCYRQAPGKERELVAAIRSSGGSTYYADSVKGRFTISRDNAKNTVYLQMISLIPEDTAVYYCAARYYRPSRYDYWGQGTQVTVSS | high polyreactivity
QVQLVESGGGLVQAGGSLRLSCAASGSTFYAYAMGWYRQAPGKERELVAAIDSGGSTYYADSVKGRFPISRDNAKNTVYFQMNSLNPEDTAVYYCAVRHRYTRAYWGRDYWGQGTQVTVSS | low polyreactivity
QVQLVESGGGLVQAGGSHRLSCAASGRIFVIYAMGWNRQAPGKERELVALITRGSSTYADSVKGRFTISRDNAKNTVYLQMYSLKPEDTAVYYCAARRYVTVDYDYWGQGTQVTVSS | high polyreactivity
QVQLVESGGGLVQAGGSLRLSCAASGFILAYYAMGWYRQSPGKERELVAAISIGSSTDYADSVKGRFTISRDNAKNTVYLQMNSLKPEDTAVYYCAARDYYYEYDYWGQGTQVTVSS | low polyreactivity
QVQLVESGGGLVQAGRSLRLICAASGLILFYNAMGWYRQPPGKERELVAVITSGGRTYYADSVKGRFTISRDNAKNTVYLQMNSLKPEDTAVYFCAATYGHPTSYGDGWRYGYWGQGTQVTVSS | low polyreactivity
QVQLVESGGGLVQAGGRLRLSCAASGSTFSYYAMGWYRQAPGKERELVAAISSRGSSTYYADSVKGRFTISRDNAKNTVYLQMNSLKPQATAVYYCAAVRYSPTKFNYWGQGTQVTVSS | high polyreactivity
QVQLVESGGGLVQAGGSLRLSCAPSGSTSYLYAMGWYRQAPGKERELVATITTRSGSTYYADSVKGRFTISRDNAKNTVYIQMNSLKPEDTAVYYCAARWISVWSEGAEHDYWGQGTQVTVSS | low polyreactivity
QVQLVESGGGLVQAGGSLRLSCAASGSIFWYNAMGWYRQAPGKERELVAAISVGGGSTSSADSVKGRFTISRDNAKNTVYLQMHSLKPEDTAVYYCNSVRYYRLFAHYGEYGYWGQGTQVTVSS | high polyreactivity
QVQLVESGGGLVQAGGSLRLSCAASGSIFQINVMGWYRQAPGKERELVAASYADSVKGRFTISRDNAKNTVYVQMNSLKPEDTAVYYCARTNPAYSIYDYWGQGTQVTVSS | low polyreactivity
QDHLVESGGGLDQAGGSLRLSCAASGRILGDYAMGWYRQAPGKEREFVAAIDYNGGSTNYADSVKGRFTISRDNAKNTVYLQMNSLKPEDTAVYYCAAPGFPSRNGFGYWGQGTQVTVSS | low polyreactivity
